Measurements as given in patent US20240093191A1, “COMPOSITIONS AND METHODS FOR TREATING DISEASE ASSOCIATED WITH DUX4 OVEREXPRESSION” (RESEARCH INSTITUTE AT NATIONWIDE CHILDREN'S HOSPITAL, priority 2021, published 2024).

Legend:
Type in all cases: cell-based, human
[1] = test system: DUX4 ORF (RenLuc-DUX4 ORF); test: Dual-luciferase assay, RenLuc-DUX4 ORF reporter co-transfected with miDUX4 plasmids in HEK293 cells; conditions: HEK293, 24 h
Procedure: Dual Luciferase Assay. (See also FIGS. 1A, 3A-B, 4A-B, 5B, and 16B-C.) This assay was performed as previously described by Wallace et al. (Mol. Ther. Methods Clin. Dev. 8: 121-30 (2018)) and following the dual-luciferase reporter assay system (Promega) protocol with some modifications. All plasmid constructs had the psiCheck2 dual luciferase reporter plasmid (Promega) as backbone that contains separate Renilla and Firefly luciferase genes, where the former contains the various target sequences used in the experiments of the disclosure, and the latter serves as a transfection normalizer (control). All DUX4 and control sequences were cloned downstream of the Renilla luciferase stop codon, serving as a 3′UTR. HEK293 cells were pre-plated 24h before transfection. Cells were then co-transfected with the luciferase DUX4 reporter and individual microRNA expression plasmids in an increasing luciferase DUX4 reporter:miRNA molar ratio using Lipofectamine 2000 (Invitrogen). Luciferase activity was measured 24h or 48h after transfection. DUX4 gene silencing was determined as previously described [Wallace et al., Mol. Ther. Methods Clin. Dev. 8: 121-30 (2018)]. Triplicate data were averaged per experiment, and individual experiments were performed 3 times. Results were reported as the average ratio of Renilla to Firefly luciferase activity±SEM for all combined experiments.
Accordingly, two new mi405 constructs, i.e., mi405F and mi405NF, were designed. […] To assess the inhibition efficiency of the three mi405 constructs, a dual-luciferase assay and western blot analysis, similar to what was described for mir-675, were carried out. In the dual-luciferase assay, U6.mi405, U6.mi405F, or U6.mi405NF was co-transfected into HEK293 cells along with the RenLuc-DUX4 ORF (a construct expressing the open reading frame of DUX4 as a 3′UTR sequence of Renilla Luciferase). 24 h after transfection, U6.mi405, U6.mi405F, and U6.mi405NF reduced the relative Renilla luciferase activity by 85±1%, 89±1%, and 66±1% (P<0.0001, ANOVA, N=3), respectively, when tested against the RenLuc-DUX4 ORF construct.

[2] = test system: DUX4-FL (DUX4 ORF + 3'UTR, RenLuc-DUX4-FL); test: Dual-luciferase assay, RenLuc-DUX4-FL reporter co-transfected with miRNA plasmids in HEK293 cells; conditions: positive control, molar ratio not stated, 48 h
From the text: FIG. 1A. Dual-luciferase assay to test the ability of U6.mir-675 to target DUX4. Shown here is the mir-675 expression plasmid used in this study. In this construct, the RNA polymerase III U6 promoter (U6p) controls the expression of mir-675. A terminal signal formed of a stretch of six T nucleotides allows the termination of transcription. On the right, the secondary structure of the mir-675 along with its 5′ and 3′ end flanking sequences (Boxed) is shown. At the 5′ end, the flanking sequence is of 40 nucleotides long and at the 3′ end, the flanking sequence is of 47 nucleotides long starting from the nucleotide at position 114. U6.mir-675 was tested to target DUX4 using the dual-luciferase assay. To do this, DUX4 was cloned in the RenLuc-DUX4-FL expression plasmid (FIG. 1A), i.e., DUX4-FL (DUX4 ORF without V5 tag+3′UTR) was PCR amplified using CMV.DUX4-FLΔV5 as template with the following primers: forward: 5′ […] 3′ (SEQ ID NO: 125), reverse: 5′ […] 3′ (SEQ ID NO: 126). The PCR product was then cloned into a previously designed RenLuc SD5 mutant plasmid using XhoI/SpeI restriction sites and the RenLuc.SD5 mutant-DUX4 3′UTR plasmid backbone. The Renilla luciferase gene has a splicing donor mutation (*SID5) that prevents the alternative splicing of the DUX4-FL mRNA (Ansseau et al. (2015) PLoS One, 10, e0118813). The dual-luciferase assay was performed by co-transfecting the RenLuc-DUX4-FL and U6.mir-675 expression plasmids into the human embryonic kidney HEK293 cells. 48 hours after transfection, both the Renilla and Firefly luciferase activities were measured. The latter was used to normalize for Renilla luciferase activity. The non-targeting RenLuc control backbone plasmid (RenLuc) was co-transfected with U6.mir-675 and the RenLuc-DUX4-FL co-transfected with U6.milacZ as negative control reactions. In the other reactions, mir-675 reduced the relative Renilla luciferase activity by 24±3% (P<0.0001, ANOVA, N=3), 28±2% (P<0.0001, ANOVA, N=3) and 33±3% (P<0.0001, ANOVA, N=3) at a molarity ratio U6.mir-675: RenLuc-DUX4-FL (n:n) of 10 to 1, 20 to 1 and 40 to 1, respectively. All readings were normalized to the U6.milacZ (negative control). Six replicate data were averaged per experiment and individual experiments were performed in triplicate (N=3). Results were reported as the average relative Renilla luciferase activity±SEM for all combined experiments. […] A representative western blot gel and the quantification results of three independent western blot replicates (N=3) performed on 15 μg of total protein extracts collected from HEK293 cells 24 hours after co-transfection with the AAV.CMV.DUX4-FL and the U6.mir-675 or the human long non-coding H19 expression plasmid (CMV.H19) is shown here. […]

DUX4 protein = test: Western blot of V5-tagged DUX4 protein in co-transfected HEK293 cells; conditions: 1:4 DUX4:mi405 molar ratio; HEK293; 24 h; normalized to miGFP; N=2

B1: U6.mi405: original artificially designed miDUX4 (mi405) U6 expression plasmid, Wallace et al. (nucleic acid)
DNA: ACGCCGCCATCTCTAGGCCCGCGCCGGCCCCCTCGCACAGACTTGTGGGAGAAGCTCGGCTACTCCCCTGCCCCGGTTAATTTGCATATAATATTTCCTAGTAACTATAGAGGCTTAATGTGCGATAAAAGACAGATAATCTGTTCTTTTTAATACTAGCTACATTTTACATGATAGGCTTGGATTTCTATAAGAGATACAAATACTAAATTATTATTTTAAAAAACAGCACAAAAGGAAACTCACCCTAACTGTAAAGTAATTGTGTGTTTTGAGACTATAAATATCCCTTGGAGAAAAGCCTTGTTTGCGTTTAGTGAACCGTCAGATGGTACCGTTTAAACTCGAGTGAGCGATCCAGGATTCAGATCTGGTTTCTGTAAAGCCACAGATGGGAAACCAGATCTGAATCCTGGACTGCCTACTAGAGCGGCCGCCACAGCGGGGAGATCCAGACATGATAAGATACATTTTTT
With B1 the “reduction of relative Renilla luciferase activity” value ([1]; 1:4 DUX4:mi405 molar ratio, normalized to miGFP) was 85±1%, the “reduction of Renilla luciferase activity” value ([1]; DUX4:mi405 molar ratio 2 to 1, normalized to U6.miGFP) was 62±2% and the “reduction of relative Renilla luciferase activity” value [2] was 80±2%. For the same molecule, the “reduction of DUX4 protein levels” value (DUX4 protein) was 79±1%.
